Biological target: T1, mouse tau (mouse, UniProt P10637-2 2-430, limits assumed)
T1 construct: also called mouse brain lysate comprising tau
Assay: Western blot of mouse brain lysate probed with the scFv (FIG. 4)
Source text: FIG. 4 depicts Western blots showing that the scFv's detect human but not mouse tau. Mouse brain lysate comprising tau and recombinant human tau were both run on a gel and the scFv's SC1 (A) and SC3 (B) were used to detect tau. Recombinant human tau was detected by SC1 and SC3; mouse tau was not. Anti-vinculin Western blot was used as a loading control for tissue samples.

T1 sequence (P10637 other isoform, or with tags, fused parts or gaps limits assumed): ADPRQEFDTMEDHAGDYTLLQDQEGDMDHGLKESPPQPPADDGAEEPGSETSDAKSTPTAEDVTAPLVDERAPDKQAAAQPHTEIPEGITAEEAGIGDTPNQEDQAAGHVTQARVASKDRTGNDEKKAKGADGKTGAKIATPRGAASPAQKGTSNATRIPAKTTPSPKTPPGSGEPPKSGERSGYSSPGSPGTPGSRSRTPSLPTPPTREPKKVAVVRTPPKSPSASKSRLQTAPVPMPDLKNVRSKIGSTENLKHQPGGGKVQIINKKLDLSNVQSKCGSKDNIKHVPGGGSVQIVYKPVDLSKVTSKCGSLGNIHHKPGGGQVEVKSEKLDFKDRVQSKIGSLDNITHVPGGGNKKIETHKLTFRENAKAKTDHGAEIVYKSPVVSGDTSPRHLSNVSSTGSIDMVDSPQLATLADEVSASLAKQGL

| binding result | Binder |
| --- | --- |
| no binding | SC3 scFv HJ8.5 HA (scFv, Encoded with an N-terminal secretory signal peptide (SP), left out here because the secreted protein was tested; also called HJ8.5 scFv SC3) scFv: DIVLTQSPASLAVSLGQRATISCRASQSVSTSRYSYIHWYQQKPGQPPKLLIKYASNLESGVPARFSGSGSGTDFTLNIHPLEEEDAATYYCHHSWEIPLTFGAGTKLELKSGGGSGGGSGGGSEVKVEESGGGLVQPGGSMKLSCVVSGFTFSNYWVNWVRQSPEKGLEWVAQIRLKSDNYATHYEESVKGRFTISRDDSKSSVYLQMNNLRAEDSGIYYCTNWEDYWGQGTTLTVSSYPYDVPDYA |
| no binding | SC1 scFv HJ8.5 HA (scFv, Encoded with an N-terminal secretory signal peptide (SP), left out here because the secreted protein was tested; also called HJ8.5 scFv SC1) scFv: DIVLTQSPASLAVSLGQRATISCRASQSVSTSRYSYIHWYQQKPGQPPKLLIKYASNLESGVPARFSGSGSGTDFTLNIHPLEEEDAATYYCHHSWEIPLTFGAGTKLELKGGGSEVKVEESGGGLVQPGGSMKLSCVVSGFTFSNYWVNWVRQSPEKGLEWVAQIRLKSDNYATHYEESVKGRFTISRDDSKSSVYLQMNNLRAEDSGIYYCTNWEDYWGQGTTLTVSSYPYDVPDYA |
